From patent US20040077046 come the findings set out here.

This data set has as its system 3H-acetylated histone H4 peptide ([3H]-Ac(H41-24)).

“flag epitope-tagged HDAC9 (HDAC9v1 with C-terminal flag tag)”: the “in vitro histone deacetylase assay (release of 3H-acetate from the peptide by immunoprecipitated enzyme)” value is “HDAC9 could deacetylate the histone peptide substrate at a level that was equivalent to UDAC3 and HDAC4”.
